Laboratory results published in publication PMC8934182.

Assays:
[1] = molecular target: SARS-CoV nucleocapsid (N) protein (SARS-CoV, UniProt P59595 1-422); assay: competition
SARS-CoV-2 spike S1 = SARS-CoV-2 spike S1 (SARS-CoV-2, UniProt P0DTC2 13-685); assay: 5.0 ng/mL in EIS
Interferon-gamma (IFN-γ) = Interferon-gamma (IFN-γ) (UniProt P01579 24-161); assay: competition

Measured: binding result

Sequence of SARS-CoV nucleocapsid (N) protein (P59595 whole entry): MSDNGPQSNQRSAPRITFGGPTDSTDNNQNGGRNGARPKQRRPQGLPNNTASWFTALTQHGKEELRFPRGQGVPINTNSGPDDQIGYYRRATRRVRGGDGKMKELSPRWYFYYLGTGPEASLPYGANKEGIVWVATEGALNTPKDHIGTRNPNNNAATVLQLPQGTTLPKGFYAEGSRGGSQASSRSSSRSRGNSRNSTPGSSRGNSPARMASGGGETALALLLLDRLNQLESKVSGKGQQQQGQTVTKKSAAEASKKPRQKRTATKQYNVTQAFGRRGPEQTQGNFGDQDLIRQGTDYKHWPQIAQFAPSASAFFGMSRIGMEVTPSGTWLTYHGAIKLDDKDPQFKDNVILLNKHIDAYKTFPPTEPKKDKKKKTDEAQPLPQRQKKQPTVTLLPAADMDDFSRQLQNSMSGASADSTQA
Sequence of Interferon-gamma (IFN-γ) (P01579 24-161): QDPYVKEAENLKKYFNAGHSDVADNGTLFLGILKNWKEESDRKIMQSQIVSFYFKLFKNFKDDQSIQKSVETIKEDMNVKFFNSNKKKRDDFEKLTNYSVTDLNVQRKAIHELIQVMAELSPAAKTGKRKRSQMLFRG

B1: N48 aptamer (ssDNA)
DNA: GCTGGATGTCGCTTACGACAATATTCCTTAGGGGCACCGCTACATTGACACATCCAGC
no binding: all assays above
